This passage reports protein stability index results from the supplement of paper PMC10567573.

± gives the standard deviation.

The data set can be described thus: protein stability index of a GFP-peptide fusion (GPS, HEK-293T) (PSI 1-6); higher = more stable. Conditions: c terminus: a fixed tail appended.
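Further: 24-mer peptide tiles fused after GFP, lentivirally expressed, FACS-sorted into six equal bins by GFP/DsRed ratio, decoded by Illumina sequencing, PSI is the read-weighted mean bin number.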

Turning to VRELVDKATNVVMNYSEIESKVRE [CLINT1], the protein stability index came to 4 ± 0.38 (treatment: DMSO) and 3.8 ± 0.37 (treatment: MLN4924 1 uM, 8 h).
On to VRKEDMTYAVRKLDNTKFRSHEGE [SRSF1], for which the protein stability index was 4.32 ± 0.13 (treatment: DMSO) and 4.13 ± 0.16 (treatment: MLN4924 1 uM, 8 h).
VRLGSFRSPRAGAGALLRLPSERL [PRPH]: the protein stability index reads like this: (treatment: DMSO) 2.96 ± 0.16; (treatment: MLN4924 1 uM, 8 h) 3.23 ± 0.24.
Taken in the same sequence, the figures for VRQAFQDQDDRRTWDGRPLTMAAT [GFOD1] were 3.829 ± 0.031 and 3.65 ± 0.26.
Taken in the same sequence, the figures for VRRTDDTPVVLVGNKSDLKQLRQV [RIT1] were 3.56 ± 0.26 and 3.6 ± 0.23.
In the case of VRVALDYEAGQVTLHNAQTQEPIF [TRIM15], the protein stability index stood at 2.29 ± 0.33 (treatment: DMSO) and 2.51 ± 0.33 (treatment: MLN4924 1 uM, 8 h).
Regarding VSGINGDIRAKKIASIADVCESMK [HNF4A], the protein stability index by setting is: (treatment: DMSO) 3.52 ± 0.15; (treatment: MLN4924 1 uM, 8 h) 3.72 ± 0.31.
Take VSLAVTLHRLKFLGFARRNWGNGK [GDAP1]: the protein stability index was determined as 2.38 ± 0.41 (treatment: DMSO) and 2.33 ± 0.64 (treatment: MLN4924 1 uM, 8 h).
Turning to VSTFLSGVMLTWPDGLMYQKFRNQ [TMEM120A], the protein stability index by setting is: (treatment: DMSO) 2.85 ± 0.82; (treatment: MLN4924 1 uM, 8 h) 2.36 ± 0.54.
Taken in the same sequence, the figures for VTFREENTIAFRHLFLLGYSDGAD [MCOLN1] were 2.38 ± 0.2 and 2.2 ± 0.11.
In the case of VTPKKSPPPKTNLTPGQSDSAKRE [FAN1], the protein stability index is, setting by setting: (treatment: DMSO) 5.22 ± 0.33; (treatment: MLN4924 1 uM, 8 h) 5.35 ± 0.33.
VTVKDETATMKDLEAEVKDTTRVE [R3HDM1]: the protein stability index (treatment: DMSO) is 5.33 ± 0.17 and the protein stability index (treatment: MLN4924 1 uM, 8 h) came to 5.56 ± 0.053.
Turning to VVAYLALAALSATISFRIYKSVLQ [RTN1], the protein stability index worked out at 2.7 ± 0.66 (treatment: DMSO) and 2.87 ± 0.43 (treatment: MLN4924 1 uM, 8 h).
In turn, VVILPCQHNLCRKCASDIFQASNP [TRIM55] showed a protein stability index (treatment: DMSO) of 2.48 ± 0.34 and a protein stability index (treatment: MLN4924 1 uM, 8 h) of 2.38 ± 0.22.
Sequence VVKKIALREIRMLKQLKHPNLVNL [CDKL4] returned a protein stability index (treatment: DMSO) of 2.2 ± 0.76 and a protein stability index (treatment: MLN4924 1 uM, 8 h) of 2.63 ± 0.11.
In the case of VVTSAREHIYDLRSLENYHFVDEH [CLINT1], the protein stability index is, setting by setting: (treatment: DMSO) 2.85 ± 0.51; (treatment: MLN4924 1 uM, 8 h) 3.15 ± 0.45.
In turn, VWERPARSALWCLGLNAAFWFFAL [RETREG3] registered a protein stability index (treatment: DMSO) of 2.62 ± 0.77 and a protein stability index (treatment: MLN4924 1 uM, 8 h) of 2.61 ± 0.2.
Taken in the same sequence, the figures for VYLHGDDHQDSDEFCRNTLCAPEV [FAF2] were 4.13 ± 0.22 and 4.23 ± 0.15.
Take WCRDRLLGHREPSAHPVEVFSFDL [TMEM175]: the protein stability index by setting is: (treatment: DMSO) 2.39 ± 0.3; (treatment: MLN4924 1 uM, 8 h) 2.25 ± 0.39.
Taken in the same sequence, the figures for WDPSPRGCFTLPRSEPIRPIDPAA [DVL3] were 3.98 ± 0.23 and 3.77 ± 0.073.
Taken in the same sequence, the figures for WERKEGGGGISCVLQDGCVFEKAG [CPOX] were 3.82 ± 0.12 and 3.84 ± 0.24.
Taken in the same sequence, the figures for WNHIRLQRTAKGKPVLAKDSSNPY [AASDHPPT] were 2.9 ± 0.39 and 3.19 ± 0.3.
On to WRDSKGKDKEYAEIIRKQVSATKA [UBE2R2], for which the protein stability index reads like this: (treatment: DMSO) 3.9 ± 0.34; (treatment: MLN4924 1 uM, 8 h) 4.07 ± 0.46.
WRNLGVQQSQGWVHYMIHEPEPHI [CKS1B] showed a protein stability index (treatment: DMSO) of 2.24 ± 0.23 and a protein stability index (treatment: MLN4924 1 uM, 8 h) of 2.28 ± 0.18.
For WTNGSGLALCQRYYHRGHVDPAND [MCOLN1], the protein stability index is, setting by setting: (treatment: DMSO) 3.11 ± 0.12; (treatment: MLN4924 1 uM, 8 h) 3.12 ± 0.21.
Taken in the same sequence, the figures for WVYSGRRGVHCWVCDESVRKLSSA [PRIM1] were 2.51 ± 0.84 and 3.04 ± 0.39.
Consider YAAIVAVVAVHVVLALFVYVAWNE [VMA21], for which the protein stability index reads like this: (treatment: DMSO) 2.08 ± 0.31; (treatment: MLN4924 1 uM, 8 h) 2.1 ± 0.11.
Consider YADFGPLNLAMVYRYCCKLNKKLK [CDC14A], for which the protein stability index by setting is: (treatment: DMSO) 2.9 ± 0.58; (treatment: MLN4924 1 uM, 8 h) 2.56 ± 0.43.
Take YDWLFFSPDKDSIMNIEPAILVMH [INTS3]: the protein stability index (treatment: DMSO) was 2.61 ± 0.52 and the protein stability index (treatment: MLN4924 1 uM, 8 h) came to 2.16 ± 0.21.
In the case of YGQGRKIAEVCCTSIVYATEKKQT [KCTD10], the protein stability index runs as follows: (treatment: DMSO) 2.83 ± 0.34; (treatment: MLN4924 1 uM, 8 h) 3.1 ± 0.21.
For the sequence YHMFQREKVEVQLPELFHKIGVGA [KCNAB2], the protein stability index worked out at 2.52 ± 0.59 (treatment: DMSO) and 2.39 ± 0.45 (treatment: MLN4924 1 uM, 8 h).
Take YHQGCLVNPTGNLPMWSNQTWNNS [NANOGP8]: the protein stability index came out at 2.5 ± 0.36 (treatment: DMSO) and 2.57 ± 0.066 (treatment: MLN4924 1 uM, 8 h).
On to YKMDHRRRGIALIFNHERFFWHLT [CASP6], for which the protein stability index worked out at 2.4 ± 0.72 (treatment: DMSO) and 2.2 ± 0.47 (treatment: MLN4924 1 uM, 8 h).
Taken in the same sequence, the figures for YKRSMDPGYPKMIAHDFPGIGHKV [MMP1] were 2.55 ± 0.21 and 2.77 ± 0.094.
Taken in the same sequence, the figures for YLNHVRAASPQDLAGGYTSSLACH [MNAT1] were 2.85 ± 0.39 and 2.95 ± 0.34.
Taken in the same sequence, the figures for YLPQCSYFKCVQKDIQPYMRRMVA [CCND2] were 2.11 ± 0.28 and 2.01 ± 0.33.
